In patent publication US20210403593A1 (TIZONA THERAPEUTICS, published 2021):

T1: Chimera #9 (Homo sapiens (Human), UniProt P49961 1-510)
T1 construct: Expressed on CHO cells
T1 chain: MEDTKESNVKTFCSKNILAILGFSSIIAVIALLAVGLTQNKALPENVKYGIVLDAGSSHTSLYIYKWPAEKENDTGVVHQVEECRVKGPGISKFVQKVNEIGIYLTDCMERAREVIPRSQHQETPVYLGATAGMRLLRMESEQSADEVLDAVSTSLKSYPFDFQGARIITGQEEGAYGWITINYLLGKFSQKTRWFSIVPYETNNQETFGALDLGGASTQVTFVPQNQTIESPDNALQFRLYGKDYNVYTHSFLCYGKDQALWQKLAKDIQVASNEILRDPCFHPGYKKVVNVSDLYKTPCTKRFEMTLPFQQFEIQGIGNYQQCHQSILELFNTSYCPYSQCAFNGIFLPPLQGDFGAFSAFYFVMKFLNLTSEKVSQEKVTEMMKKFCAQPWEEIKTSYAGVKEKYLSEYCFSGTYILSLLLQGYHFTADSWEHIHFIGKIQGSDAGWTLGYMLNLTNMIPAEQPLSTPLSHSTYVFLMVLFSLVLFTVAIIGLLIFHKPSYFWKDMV

T2: Chimera #10 (Homo sapiens (Human), UniProt P49961 1-510)
T2 construct: Expressed on CHO cells
T2 chain: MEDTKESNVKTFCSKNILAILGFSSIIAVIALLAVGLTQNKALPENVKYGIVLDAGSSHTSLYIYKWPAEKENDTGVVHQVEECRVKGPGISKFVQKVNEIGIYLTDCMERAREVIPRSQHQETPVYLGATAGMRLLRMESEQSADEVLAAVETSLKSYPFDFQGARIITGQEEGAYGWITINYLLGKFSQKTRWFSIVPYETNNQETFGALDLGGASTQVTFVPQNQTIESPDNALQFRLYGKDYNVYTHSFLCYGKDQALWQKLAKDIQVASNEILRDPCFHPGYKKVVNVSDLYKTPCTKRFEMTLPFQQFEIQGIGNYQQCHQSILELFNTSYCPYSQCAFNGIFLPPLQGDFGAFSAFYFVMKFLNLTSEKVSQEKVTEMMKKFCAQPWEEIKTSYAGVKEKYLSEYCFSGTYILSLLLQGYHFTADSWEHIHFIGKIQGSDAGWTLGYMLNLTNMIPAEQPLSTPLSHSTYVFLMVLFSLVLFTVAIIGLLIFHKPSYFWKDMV

T3: Chimera #14 (Homo sapiens (Human), UniProt P49961 1-510)
T3 construct: Expressed on CHO cells
T3 sequence: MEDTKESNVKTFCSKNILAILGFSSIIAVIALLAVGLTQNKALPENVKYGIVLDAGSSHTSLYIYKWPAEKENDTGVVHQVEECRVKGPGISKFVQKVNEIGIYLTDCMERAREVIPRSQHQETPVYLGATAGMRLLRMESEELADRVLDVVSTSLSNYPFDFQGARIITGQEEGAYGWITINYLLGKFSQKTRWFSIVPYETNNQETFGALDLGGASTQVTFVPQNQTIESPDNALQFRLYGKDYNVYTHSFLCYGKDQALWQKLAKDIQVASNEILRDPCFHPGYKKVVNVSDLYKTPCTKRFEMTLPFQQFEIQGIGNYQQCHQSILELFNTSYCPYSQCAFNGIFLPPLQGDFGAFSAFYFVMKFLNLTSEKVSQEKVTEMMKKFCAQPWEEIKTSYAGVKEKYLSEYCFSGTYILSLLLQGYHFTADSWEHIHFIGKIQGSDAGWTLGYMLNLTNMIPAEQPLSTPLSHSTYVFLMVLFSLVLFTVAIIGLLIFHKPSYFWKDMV

T4: Chimera #4 (Homo sapiens (Human), UniProt P49961 1-510)
T4 construct: Expressed on CHO cells
T4 chain: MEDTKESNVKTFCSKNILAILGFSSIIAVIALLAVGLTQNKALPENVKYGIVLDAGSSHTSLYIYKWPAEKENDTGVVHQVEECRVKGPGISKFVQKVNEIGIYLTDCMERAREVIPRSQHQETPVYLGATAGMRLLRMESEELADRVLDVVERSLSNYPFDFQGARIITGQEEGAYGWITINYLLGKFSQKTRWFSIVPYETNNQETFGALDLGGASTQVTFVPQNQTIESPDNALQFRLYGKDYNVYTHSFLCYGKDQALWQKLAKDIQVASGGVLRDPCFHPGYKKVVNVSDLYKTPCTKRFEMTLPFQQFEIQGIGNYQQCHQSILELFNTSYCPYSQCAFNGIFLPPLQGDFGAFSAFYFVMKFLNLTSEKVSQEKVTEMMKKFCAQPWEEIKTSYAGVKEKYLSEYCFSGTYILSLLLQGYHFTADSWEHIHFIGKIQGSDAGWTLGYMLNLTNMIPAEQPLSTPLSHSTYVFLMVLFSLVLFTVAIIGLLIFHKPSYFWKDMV

T5: Chimera #2 (human, UniProt P49961 1-510)
T5 construct: Expressed on CHO cells; also called human-mouse Chimera #2
T5 chain: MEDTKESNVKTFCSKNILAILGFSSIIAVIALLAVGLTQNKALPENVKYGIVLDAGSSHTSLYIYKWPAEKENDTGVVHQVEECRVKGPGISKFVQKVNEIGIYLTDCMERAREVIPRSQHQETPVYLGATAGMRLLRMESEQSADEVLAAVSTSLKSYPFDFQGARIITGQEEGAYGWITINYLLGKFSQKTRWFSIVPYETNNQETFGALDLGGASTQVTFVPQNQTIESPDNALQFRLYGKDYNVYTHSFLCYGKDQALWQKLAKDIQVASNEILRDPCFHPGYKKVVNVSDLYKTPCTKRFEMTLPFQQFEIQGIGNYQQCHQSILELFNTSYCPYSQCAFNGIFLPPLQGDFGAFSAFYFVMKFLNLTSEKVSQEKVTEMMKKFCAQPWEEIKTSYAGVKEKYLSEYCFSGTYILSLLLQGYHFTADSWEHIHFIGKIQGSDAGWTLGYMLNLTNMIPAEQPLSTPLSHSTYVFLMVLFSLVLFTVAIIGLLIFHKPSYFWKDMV


What was measured:
Chimera #9 = biological target: T1, Chimera #9; experiment: FACS on CHO cells; Chimera 2 with human D150 ([..])
Experimental: (§1) The chimeras were expressed in CHO cells and the ability of anti-human CD39 antibodies to bind the chimeras tested via FACS. In brief, cells were washed and blocked in FACS buffer (PBS/2% FBS) for 30 min on ice. […] After 2 washes, cells were resuspended in FACS buffer and analyzed on BD Fortessa. Data was processed with FlowJo. Positive binding was scored as “yes” and lack of binding was scored as “NO” and examples of FACS plots used to generate this table are in FIGS. 14.F and 14.G.

Chimera #10 = biological target: T2, Chimera #10; experiment: FACS on CHO cells; Chimera 2 with human E153 ([..])
Experimental: (§2) The chimeras were expressed in CHO cells and the ability of anti-human CD39 antibodies to bind the chimeras tested via FACS. In brief, cells were washed and blocked in FACS buffer (PBS/2% FBS) for 30 min on ice. […] After 2 washes, cells were resuspended in FACS buffer and analyzed on BD Fortessa. Data was processed with FlowJo.

Chimera #14 = biological target: T3, Chimera #14; experiment: FACS on CHO cells; human CD39 with mouse S153 and T154
Experimental: as §1

Chimera #4 = biological target: T4, Chimera #4; experiment: FACS on CHO cells, 15 ug/ml; human M1-S274 + mouse GGV + human L278-V510
Experimental: as §2

Chimera #2 = biological target: T5, Chimera #2; experiment: FACS on CHO cells; human M1-E142 + mouse Q143-S158 ([..]) + human Y159-V510
Experimental: as §2

Binder	binding result (Chimera #9)	binding result (Chimera #10)	binding result (Chimera #14)	binding result (Chimera #4)	binding result (Chimera #2)
31901 (antibody, human IgG4 S228P, kappa, V domains shown) VH: QVQLVQSGAEVKKPGSSVKVSCKASGGTFSSLPISWVRQAPGQGLEWMGGIGFGTANYAQKFQGRVTITADESTSTAYMELSSLRSEDTAVYYCARGGAKYAGRYGMDVWGQGTTVTVSS VL: not shown	no binding (tested: 15 ug/ml)	no binding (tested: 15 ug/ml)	no binding (tested: 15 ug/ml)	binds	no binding (tested: 15 ug/ml)
31905 (antibody, human IgG4 S228P, kappa, V domains shown) VH: QVQLVQSGAEVKKPGSSVKVSCKASGGTFPSNAISWVRQAPGQGLEWMGGIGFGTANYAQKFQGRVTITADESTSTAYMELSSLRSEDTAVYYCARGGAKYARTYGMDVWGQGTTVTVSS VL: not shown	no binding (tested: 15 ug/ml)	no binding (tested: 15 ug/ml)	no binding (tested: 15 ug/ml)	binds	no binding (tested: 15 ug/ml)
